Molecular target: Fc receptor on monocytes of human PBMC effector cells (human)
Assay: cell-based or functional assay

- maximal ADCC activity on KIT225/K6 cells, against ZENAPAX DAC and DAC Penzberg: 30 to 40 % lower
Substance: DAC HYP (daclizumab, humanized IgG1 anti-CD25 monoclonal antibody made by the high yield process in NS0 cells)
